The target of one series is T1, RORα (mouse, UniProt P51448 1-523).
T1 sequence: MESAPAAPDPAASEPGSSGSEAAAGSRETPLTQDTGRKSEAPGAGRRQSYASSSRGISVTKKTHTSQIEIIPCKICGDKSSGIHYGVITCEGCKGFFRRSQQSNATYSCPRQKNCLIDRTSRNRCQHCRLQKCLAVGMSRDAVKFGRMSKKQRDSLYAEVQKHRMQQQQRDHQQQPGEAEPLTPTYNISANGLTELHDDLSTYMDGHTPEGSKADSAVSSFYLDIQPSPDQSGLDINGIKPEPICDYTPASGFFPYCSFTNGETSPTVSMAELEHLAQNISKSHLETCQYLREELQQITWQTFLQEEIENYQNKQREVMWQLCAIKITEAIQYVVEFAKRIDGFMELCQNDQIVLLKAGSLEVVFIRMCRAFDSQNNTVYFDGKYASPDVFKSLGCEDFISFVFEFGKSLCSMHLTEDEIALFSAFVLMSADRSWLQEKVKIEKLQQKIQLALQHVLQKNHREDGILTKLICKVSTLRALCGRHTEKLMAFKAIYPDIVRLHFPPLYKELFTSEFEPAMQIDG
The experiment in a line: EMSA. On the technique in general: In EMSA bound probe runs differently from free probe, usually more slowly.

In another series the target is T2, Rev-erbα (mouse, UniProt Q3UV55 1-615).
T2 sequence: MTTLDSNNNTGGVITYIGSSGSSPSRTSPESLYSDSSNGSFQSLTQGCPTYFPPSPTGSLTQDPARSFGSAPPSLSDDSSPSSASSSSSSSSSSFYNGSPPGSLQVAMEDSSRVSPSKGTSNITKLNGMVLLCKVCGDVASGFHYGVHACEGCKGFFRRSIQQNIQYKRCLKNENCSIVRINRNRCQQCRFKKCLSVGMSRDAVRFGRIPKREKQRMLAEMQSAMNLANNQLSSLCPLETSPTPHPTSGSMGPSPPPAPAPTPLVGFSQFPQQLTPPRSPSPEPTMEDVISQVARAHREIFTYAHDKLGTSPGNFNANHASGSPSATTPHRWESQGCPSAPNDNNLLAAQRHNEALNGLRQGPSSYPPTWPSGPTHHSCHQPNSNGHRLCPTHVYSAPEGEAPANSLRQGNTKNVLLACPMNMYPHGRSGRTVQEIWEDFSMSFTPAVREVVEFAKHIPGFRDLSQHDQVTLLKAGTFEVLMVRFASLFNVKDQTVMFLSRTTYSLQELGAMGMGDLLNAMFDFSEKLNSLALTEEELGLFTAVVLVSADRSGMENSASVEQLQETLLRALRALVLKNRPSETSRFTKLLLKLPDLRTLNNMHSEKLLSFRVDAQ
The experiment in a line: EMSA.

B1: mut h-RRE2 (dsDNA)
DNA 1: TCACCTGCTTGACGGCTTGACAGACCG
DNA 2: CGGTCTGTCAAGCCGTCAAGCAGGTGA
Take B1: the binding result in the series with RORα and in the series with Rev-erbα was “no binding” in each case.

B2: mut h-RRE1 (dsDNA)
DNA 1: TTCCTCAACAGCCGATACATTGTTTC
DNA 2: GAAACAATGTATCGGCTGTTGAGGAA
For the molecule B2, the binding result with RORα and in the series with Rev-erbα was “no binding” each time.

The record behind these values is paper PMC11296239.
